What was measured:
[1] = target: T1, human CD71 extracellular domain (human, UniProt P02786 89-760); assay: primary ELISA; further: test concentration or dose not given here
T1 construct: also called hCD71; CD71-ECD

[2] = target: T2, human apical domain of CD71 (human, UniProt P02786 189-383, limits assumed); assay: primary ELISA; further: test concentration or dose not given here
T2 construct: domain: apical domain

[3] = target: T1, human CD71 extracellular domain; assay: primary ELISA; signal over HSA control; on RLU: test concentration or dose not given here
[4] = target: T2, human apical domain of CD71; assay: primary ELISA; signal over HSA control; on RLU: test concentration or dose not given here

T2 sequence (P02786 189-383 limits assumed): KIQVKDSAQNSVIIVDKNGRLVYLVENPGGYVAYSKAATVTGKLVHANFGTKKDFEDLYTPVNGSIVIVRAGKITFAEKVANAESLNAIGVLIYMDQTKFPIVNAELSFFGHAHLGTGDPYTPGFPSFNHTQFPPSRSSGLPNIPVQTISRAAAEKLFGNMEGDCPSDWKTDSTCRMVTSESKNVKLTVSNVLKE
T1 sequence (P02786 89-760): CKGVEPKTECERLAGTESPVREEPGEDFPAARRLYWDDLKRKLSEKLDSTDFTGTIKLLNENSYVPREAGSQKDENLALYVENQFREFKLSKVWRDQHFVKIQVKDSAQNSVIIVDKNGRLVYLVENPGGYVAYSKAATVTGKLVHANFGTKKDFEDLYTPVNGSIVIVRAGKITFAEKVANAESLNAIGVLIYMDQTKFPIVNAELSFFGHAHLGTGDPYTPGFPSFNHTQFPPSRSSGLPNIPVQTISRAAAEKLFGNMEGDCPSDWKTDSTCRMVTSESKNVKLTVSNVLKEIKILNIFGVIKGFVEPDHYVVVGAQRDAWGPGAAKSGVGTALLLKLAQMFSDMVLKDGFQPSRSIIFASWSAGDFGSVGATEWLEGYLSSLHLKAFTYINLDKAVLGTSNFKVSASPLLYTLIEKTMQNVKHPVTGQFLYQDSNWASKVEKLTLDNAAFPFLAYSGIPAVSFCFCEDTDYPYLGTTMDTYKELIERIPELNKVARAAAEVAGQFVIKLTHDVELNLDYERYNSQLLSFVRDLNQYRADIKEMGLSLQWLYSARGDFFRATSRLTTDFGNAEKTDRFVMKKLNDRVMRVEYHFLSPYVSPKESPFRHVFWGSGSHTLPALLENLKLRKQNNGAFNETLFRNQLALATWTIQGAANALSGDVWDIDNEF

| Binder | RLU [1] [RLU] | RLU [2] [RLU] | hCD71:HSA [3] [ratio] | Apical domain:HSA [4] [ratio] |
| --- | --- | --- | --- | --- |
| CD71-binding FN3 domain SEQ ID NO 444 (designed binder) MLPAPKNLVVSRVTEDSARLSWTAPDAAFDSFEIDYVEFIFTGEAIGLIVPGSERSYDLTGLKPGTKYWVTIAGVKGGEWSTPLQAFFTT | 2.8e+06 | 5.12e+06 | 48 | 89 |
| CD71-binding FN3 domain SEQ ID NO 438 (designed binder) MLPAPKNLVVSRVTEDSARLSWTAPDAAFDSFFIGYLEPQPPGEAIDLWVPGSERSYDLTGLKPGTEYNVTIQGVKGGFPSYPLLAIFTT | 4.96e+06 | 5.59e+06 | 143 | 161 |
| CD71-binding FN3 domain SEQ ID NO 441 (designed binder) MLPAPKNLVVSRVTEDSARLSWTAPDAAFDSFFIGYLEPQPPGEAILLWVPGSERSYDLTGLKPGTEYNVTIQGVKGGFPSDPLIANFTT | 5.92e+06 | 5.74e+06 | 32 | 31 |
| CD71-binding FN3 domain SEQ ID NO 439 (designed binder) MLPAPKNLVVSRVTEDSARLSWTAPDAAFDSFFIGYLEPQPPGEAIHLFVPGSERSYDLTGLKPGTEYNVTIQGVKGGFPSVPLNAYFTT | 5.47e+06 | 6.56e+06 | 215 | 258 |
| CD71-binding FN3 domain SEQ ID NO 445 (designed binder) MLPAPKNLVVSRVTEDSARLSWTAPDAAFDSFFIGYLEPQPPGEAIHLFVPGSERSYDLTGLKPGTEYNVTIQGVKGGFPSDPLVASFTT | 6.65e+06 | 6.73e+06 | 76 | 77 |
| CD71-binding FN3 domain SEQ ID NO 370 (designed binder) MLPAPKNLVVSRVTEDSARLSWTAPDAAFDSFYIAYAEPRPDGEAIVLVVPGSERSYDLTGLKPGTEYSVLIHGVKGGLLSSPLSAHFTT | 2.13e+06 | 4.83e+06 | 212 | 480 |
| CD71-binding FN3 domain SEQ ID NO 374 (designed binder) MLPAPKNLVVSRVTEDSARLSWTAPDAAFDSFYIAYAEPRPDGEAIQLSVPGSERSYDLTGLKPGTEYSVLIHGVKGGLLSSPLHASFTT | 1e+06 | 3.64e+06 | 76 | 277 |
| CD71-binding FN3 domain SEQ ID NO 386 (designed binder) MLPAPKNLVVSRVTEDSARLSWTAPDAAFDSFYIAYAEPRPDGEAITLLVPGSERSYDLTGLKPGTEYSVLIHGVKGGLLSSPLSAIFTT | 1.28e+06 | 3.96e+06 | 130 | 400 |
| CD71-binding FN3 domain SEQ ID NO 403 (designed binder) MLPAPKNLVVSRVTEDSARLSWTAPDAAFDSFYIAYAEPRPDGEAIVLDVPGSERSYDLTGLKPGTEYSVLIHGVKGGLLSSPLVADFTT | 3.64e+06 | 5.34e+06 | 233 | 342 |
| CD71-binding FN3 domain SEQ ID NO 381 (designed binder) MLPAPKNLVVSRVTEDSARLSWTAPDAAFDSFEIAYQELSLWGEAIVLTVPGSERSYDLTGLKPGTEYYVHIGGVKGGIWSRPLSAIFTT | 2.48e+06 | 5.14e+06 | 110 | 227 |
| CD71-binding FN3 domain SEQ ID NO 390 (designed binder) MLPAPKNLVVSRVTEDSARLSWTAPDAAFDSFEIGYFERAWFGEAIVLTVPGSERSYDLTGLKPGTEYAVFIGGVKGGSYSYPLSAIFTT | 1.93e+06 | 4.78e+06 | 53 | 131 |
| CD71-binding FN3 domain SEQ ID NO 348 (designed binder) MLPAPKNLVVSRVTEDSARLSWTAPDAAFDSFEISYFENTWYGEAIVLTVPGSERSYDLTGLKPGTEYVVWIGGVKGGLWSKPLSAIFTT | 1.83e+06 | 4.8e+06 | 115 | 302 |
| CD71-binding FN3 domain SEQ ID NO 379 (designed binder) MLPAPKNLVVSRVTEDSARLSWTAPDAAFDSFYIEYWEGYRSGEAIVLTVPGSERSYDLTGLKPGTEYRVHIWGVKGGAVSYPLSAIFTT | 1.4e+06 | 5.13e+06 | 65 | 239 |

Second part, the binder after the results:

| RLU [1] [RLU] | RLU [2] [RLU] | hCD71:HSA [3] [ratio] | Apical domain:HSA [4] [ratio] | Binder |
| --- | --- | --- | --- | --- |
| 5.38e+06 | 4.4e+06 | 142 | 116 | CD71-binding FN3 domain SEQ ID NO 443 (designed binder) MLPAPKNLVVSRVTEDSARLSWTAPDAAFDSFFIGYLEPQPPGEAIELYVPGSERSYDLTGLKPGTEYNVTIQGVKGGFPSDPLHAAFTT |
| 2.24e+06 | 4.86e+06 | 47 | 102 | CD71-binding FN3 domain SEQ ID NO 362 (designed binder) MLPAPKNLVVSRVTEDSARLSWTAPDAAFDSFEIAYWENNFNGEAIILIVPGSERSYDLTGLKPGTEYVVFISGVKGGTWSYPLVAQFTT |
| 2.08e+06 | 4.4e+06 | 45 | 95 | CD71-binding FN3 domain SEQ ID NO 371 (designed binder) MLPAPKNLVVSRVTEDSARLSWTAPDAAFDSFDIDYVEFGWTGEAIALLVPGSERSYDLTGLKPGTEYWVWIGGVKGGDYSPPLNAYFTT |
| 2.17e+06 | 4.77e+06 | 209 | 459 | CD71-binding FN3 domain SEQ ID NO 402 (designed binder) MLPAPKNLVVSRVTEDSARLSWTAPDAAFDSFGIYYWEYTGGEAIVLTVPGSERSYDLTGLKPGTEYVVRILGVKGGAYSTPLSAIFTT |
| 4.62e+06 | 6.51e+06 | 47 | 66 | CD71-binding FN3 domain SEQ ID NO 367 (designed binder) MLPAPKNLVVSRVTEDSARLSWTAPDAAFDSFYIAYAEPRPDGEAILLVVPGSERSYDLTGLKPGTEYSVLIHGVKGGLLSSPLVAFFTT |
| 3.57e+06 | 6.97e+06 | 120 | 233 | CD71-binding FN3 domain SEQ ID NO 359 (designed binder) MLPAPKNLVVSRVTEDSARLSWTAPDAAFDSFLIPYAETSPSGEAIVLTVPGSERSYDLTGLKPGTEYSVLIHGVKGGDYSSPLSAIFTT |
| 4.92e+06 | 6.23e+06 | 172 | 217 | CD71-binding FN3 domain SEQ ID NO 442 (designed binder) MLPAPKNLVVSRVTEDSARLSWTAPDAAFDSFEIWYAEWRQVGEAIVLTVPGSERSYDLTGLKPGTEYNVDIHGVKGGKVSWPLSAISTT |
| 1.95e+06 | 5.05e+06 | 30 | 77 | CD71-binding FN3 domain SEQ ID NO 418 (designed binder) MLPAPKNLVVSRVTEDSARLSWTAPDAAFDSFEIAYFENSYYGEAIVLTVPGSERSYDLTGLKPGTEYAVYIGGVKGGSWSNPLSAISTT |
| 1.09e+06 | 4.29e+06 | 34 | 135 | CD71-binding FN3 domain SEQ ID NO 388 (designed binder) MLPAPKNLVVSRVTEDSARLSWTAPDAAFDSFEIAYFEYCLNGEAIVLTVPGSERSYDLTGLKPGTEYWVQIGGVKGGTWSWPLSAIFTT |
| 2.26e+06 | 4.88e+06 | 89 | 192 | CD71-binding FN3 domain SEQ ID NO 440 (designed binder) MLPAPKNLVVSRVTEDSARLSWTAPDAAFDSFEIVYAEWTQHGEAIVLTVPGSERSYDLTGLKPGTEYYVHIGGVKGGKWSPPLYAIFTT |
| 2.34e+06 | 5.02e+06 | 39 | 83 | CD71-binding FN3 domain SEQ ID NO 358 (designed binder) MLPAPKNLVVSRVTEDSARLSWTAPDAAFDSFEIGYWENAYKGEAIVLTVPGSERSYDLTGLKPGTEYVVFIGGVKGGVWSVPLSAIFTT |
| 1.73e+06 | 4.64e+06 | 23 | 61 | CD71-binding FN3 domain SEQ ID NO 407 (designed binder) MLPAPKNLVVSRVTEDSARLSWTAPDAAFDSFEIAYFETCRTGEAIVLTVPGSERSYDLTGLKPGTEYRVWIGGVKGGVWSRPLSAIFTT |
| 2.38e+06 | 5.42e+06 | 63 | 144 | CD71-binding FN3 domain SEQ ID NO 352 (designed binder) MLPAPKNLVVSRVTEDSARLSWTAPDAAFDSFEIAYQELSLWGEAIVLTVPGSERSYDLTGLKPGTEYYVHIGGVKGGIWSSPLSAIFTT |
| 1.95e+06 | 4.39e+06 | 124 | 280 | CD71-binding FN3 domain SEQ ID NO 429 (designed binder) MLPAPKNLVVSRVTEDSARLSWTAPDAAFDSFEIGYFERSFYGEAIILFVPGSERSYDLTGLKPGTEYAVWIGGVKGGVWSRPLSAIFTT |
| 2.04e+06 | 5.55e+06 | 21 | 57 | CD71-binding FN3 domain SEQ ID NO 384 (designed binder) MLPAPKNLVVSRVTEDSARLSWTAPDAAFDSFEIDYAENRHHGEAIALLVPGSERSYDLTGLKPGTEYIVFIGGVKGGRWSQPLVASFTT |
| 1.42e+06 | 3.68e+06 | 185 | 478 | CD71-binding FN3 domain SEQ ID NO 406 (designed binder) MLPAPKNLVVSRVTEDSARLSWTAPDAAFDSFFIDYDESLDSGEAIVLTVPGSERSYDLTGLKPGTEYNVTIQGVKGGFPSSPLEAAFTT |
| 1.65e+06 | 5.57e+06 | 25 | 84 | CD71-binding FN3 domain SEQ ID NO 397 (designed binder) MLPAPKNLVVSRVTEDSARLSWTAPDAAFDSFIILYGEAQYDGEAIVLTVPGSERSYDLTGLKPGTEYPVDIYGVKGGPYSWPLSAIFTT |
